From patent publication US20240116985A1, “STAPLED PEPTIDES AND METHODS THEREOF” (priority 2020, published 2024) come the findings set out here.

Starred links: 1 amine or outer side, 2 acyl side, 3 side chain; linkers in the order of their positions; H or OH if unused. Positions of bridges follow the written chain, without caps; N, C: chain ends. Non-standard residues stand in square brackets, D forms with d. Primed or numbered codes have the meaning given here. PyrS2″ = (S)-3-amino-1-((pent-4-en-1-yloxy)carbonyl)pyrrolidine-3-carboxylic acid (stapling residue), C=CCCCOC(=O)N1CC[C@@](N[*:1])(C(=O)[*:2])C1; B5(4) = 2,2-bis(4-pentenyl)glycine = 2-amino-2-(pent-4-en-1-yl)hept-6-enoic acid (stitching residue), C=CCCCC(CCCC=C)(N[*:1])C(=O)[*:2]; PyrS2 = (S)-3-amino-1-((pent-4-en-1-yloxy)carbonyl)pyrrolidine-3-carboxylic acid, C=CCCCOC(=O)N1CC[C@@](N[*:1])(C(=O)[*:2])C1; PyrS1 = (S)-3-amino-1-((but-3-en-1-yloxy)carbonyl)pyrrolidine-3-carboxylic acid, C=CCCOC(=O)N1CC[C@@](N[*:1])(C(=O)[*:2])C1; MorphAsn = (S)-2-amino-4-morpholino-4-oxobutanoic acid, O=C(C[C@H](N[*:1])C(=O)[*:2])N1CCOCC1; B5(3) = 2,2-bis(4-pentenyl)glycine (stitching residue), C=CCCCC(CCCC=C)(N[*:1])C(=O)[*:2]; B6 = 2-amino-2-(hex-5-en-1-yl)oct-7-enoic acid, C=CCCCCC(CCCCC=C)(N[*:1])C(=O)[*:2]; Phe(3-COOH) = N[C@@H](Cc1cccc(C(=O)O)c1)C(=O)O; Phe(2-CF3) = N[C@@H](Cc1ccccc1C(F)(F)F)C(=O)O; Bta = N[C@@H](Cc1csc2ccccc12)C(=O)O; αAllylPro = C=CC[C@@]1(C(=O)O)CCCN1; tBuAla = CC(C)(C)C[C@H](N)C(=O)O; 3Thi = N[C@@H](Cc1ccsc1)C(=O)O; Cha = N[C@@H](CC1CCCCC1)C(=O)O; αMeP = C[C@@]1(C(=O)O)CCCN1; Aib = CC(C)(N)C(=O)O

B1: I-2520 (peptide)
peptide: Ac-[αAllylPro]D[tBuAla][B5(4)]DXQAFL[PyrS2][Phe(2-CF3)][Bta]A-NH2
modifications: staple 1-4, 4-11; not fully specified (residue 6); printed as Ac-PL3-Asp-Npg-B5-Asp-[CH2CChCO2H]TriAzDap-Gln-Ala-Phe-Leu-PyrS2-2F3MeF-BztA-Ala-NH2
B2: I-2519 (peptide)
peptide: Ac-[αAllylPro]D[tBuAla][B6]D[Phe(3-COOH)]QAFL[PyrS1][Phe(2-CF3)][Bta]A-NH2
modifications: staple 1-4, 4-11; not fully specified; printed as Ac-PL3-Asp-Npg-B6-Asp-3COOHF-Gln-Ala-Phe-Leu-PyrS1-2F3MeF-BztA-Ala-NH2
B3: I-2231 (peptide)
peptide: Ac-[αMeP]D[tBuAla][Aib]DDAAFQ[Aib][3Thi][Bta]HK-NH2
SMILES: CC(=O)N1CCC[C@@]1(C)C(=O)N[C@@H](CC(=O)O)C(=O)N[C@@H](CC(C)(C)C)C(=O)NC(C)(C)C(=O)N[C@@H](CC(=O)O)C(=O)N[C@@H](CC(=O)O)C(=O)N[C@@H](C)C(=O)N[C@@H](C)C(=O)N[C@@H](Cc1ccccc1)C(=O)N[C@@H](CCC(N)=O)C(=O)NC(C)(C)C(=O)N[C@@H](Cc1ccsc1)C(=O)N[C@@H](Cc1csc2ccccc12)C(=O)N[C@@H](Cc1c[nH]cn1)C(=O)N[C@@H](CCCCN)C(N)=O
B4: I-2523 (peptide)
peptide: Ac-[αAllylPro]N[Cha][B5(4)]DQKAFL[PyrS2]F[Bta][MorphAsn]-NH2
modifications: staple 1-4, 4-11; not fully specified (residue 7); printed as Ac-PL3-Asn-Cha-B5-Asp-Gln-[Phc]Lys-Ala-Phe-Leu-PyrS2-Phe-BztA-MorphAsn-NH2

For the experiment, the target named is full-length beta-Catenin (Uniprot ID P35222) (Homo sapiens (Human)) (UniProt P35222). In words: fluorescence polarization competition; peptide titrated against 10 nM full-length beta-catenin + 10 nM 5FAM-TCF4(10-53).
Chain of full-length beta-Catenin (Uniprot ID P35222) (Homo sapiens (Human)) (P35222 whole entry): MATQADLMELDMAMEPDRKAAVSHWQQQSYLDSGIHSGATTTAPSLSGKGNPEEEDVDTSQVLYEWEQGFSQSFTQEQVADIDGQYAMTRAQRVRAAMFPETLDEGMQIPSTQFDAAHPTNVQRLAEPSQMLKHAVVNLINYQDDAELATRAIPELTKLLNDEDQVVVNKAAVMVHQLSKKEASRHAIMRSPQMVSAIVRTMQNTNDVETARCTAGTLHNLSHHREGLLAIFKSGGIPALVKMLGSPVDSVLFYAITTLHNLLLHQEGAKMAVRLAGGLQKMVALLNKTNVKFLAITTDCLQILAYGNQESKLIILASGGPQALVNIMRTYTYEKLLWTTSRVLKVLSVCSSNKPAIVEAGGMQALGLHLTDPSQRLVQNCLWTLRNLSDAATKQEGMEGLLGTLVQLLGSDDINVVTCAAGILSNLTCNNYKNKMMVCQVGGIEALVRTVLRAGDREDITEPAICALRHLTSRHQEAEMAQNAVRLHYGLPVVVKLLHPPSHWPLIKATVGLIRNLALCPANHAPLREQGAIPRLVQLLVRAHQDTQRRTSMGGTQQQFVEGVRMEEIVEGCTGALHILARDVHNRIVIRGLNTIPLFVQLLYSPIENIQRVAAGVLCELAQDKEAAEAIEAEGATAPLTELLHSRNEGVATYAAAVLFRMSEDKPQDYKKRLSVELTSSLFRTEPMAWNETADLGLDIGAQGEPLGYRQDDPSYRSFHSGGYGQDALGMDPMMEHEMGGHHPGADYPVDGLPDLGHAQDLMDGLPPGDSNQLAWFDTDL
The IC50 is the point on the concentration scale where inhibition reaches its midpoint. As to Ac-[αAllylPro]D[tBuAla][B6]D[Phe(3-COOH)]QAFL[PyrS1][Phe(2-CF3)][Bta]A-NH2 (staple 1-4, 4-11) [I-2510], the IC50 came out at 24 nM.
Next, B1: 27 nM; Ac-[αAllylPro]N[Cha][B5(4)]DQK(Ac)AFL[PyrS2]F[Bta][MorphAsn]-NH2 (staple 1-4, 4-11) [I-2522]: 219 nM.
To Ac-[αAllylPro]D[tBuAla][B6]D[Phe(3-COOH)]QAFL[PyrS2][Phe(2-CF3)][Bta]A-NH2 (staple 1-4, 4-11) [I-2517] belongs 61 nM; to B2, 94 nM.
Next, B3: 5190 nM.
Take Ac-[αAllylPro]D[tBuAla][B5(3)]DDAAFQ[PyrS2″][3Thi][Bta]HK-NH2 (staple 1-4, 4-11; also: later eluting staple isomer) [I-2230]: the IC50 came to 8 nM.
Next, Ac-[αAllylPro]D[tBuAla][B6]D[Phe(3-COOH)]QAFL[PyrS2][Phe(2-CF3)][Bta]A-NH2 (staple 1-4, 4-11; also: one of three HPLC isomer compositions) [I-2516]: 209 nM.
To Ac-[αAllylPro]D[tBuAla][B6]D[Phe(3-COOH)]QAFL[PyrS2][Phe(2-CF3)][Bta]A-NH2 (staple 1-4, 4-11) [I-2515] belongs 1610 nM.
To B4 belongs 1730 nM.
Take Ac-[αAllylPro]D[tBuAla][B5(3)]DDAAFQ[PyrS2″][3Thi][Bta]HK-NH2 (staple 1-4, 4-11; also: earlier eluting staple isomer) [I-2229]: the IC50 was 6 nM.
